{
  "source": "patent US8309072B2",
  "about": "“Irreversibly-inactivated pepsinogen fragments for modulating immune function” (The Zhabilov Trust, priority 2004, dated 2012)",
  "key": {"gp96": {"target": "gp96 (Homo sapiens, UniProt P14625)", "sequence (P14625 22-803)": "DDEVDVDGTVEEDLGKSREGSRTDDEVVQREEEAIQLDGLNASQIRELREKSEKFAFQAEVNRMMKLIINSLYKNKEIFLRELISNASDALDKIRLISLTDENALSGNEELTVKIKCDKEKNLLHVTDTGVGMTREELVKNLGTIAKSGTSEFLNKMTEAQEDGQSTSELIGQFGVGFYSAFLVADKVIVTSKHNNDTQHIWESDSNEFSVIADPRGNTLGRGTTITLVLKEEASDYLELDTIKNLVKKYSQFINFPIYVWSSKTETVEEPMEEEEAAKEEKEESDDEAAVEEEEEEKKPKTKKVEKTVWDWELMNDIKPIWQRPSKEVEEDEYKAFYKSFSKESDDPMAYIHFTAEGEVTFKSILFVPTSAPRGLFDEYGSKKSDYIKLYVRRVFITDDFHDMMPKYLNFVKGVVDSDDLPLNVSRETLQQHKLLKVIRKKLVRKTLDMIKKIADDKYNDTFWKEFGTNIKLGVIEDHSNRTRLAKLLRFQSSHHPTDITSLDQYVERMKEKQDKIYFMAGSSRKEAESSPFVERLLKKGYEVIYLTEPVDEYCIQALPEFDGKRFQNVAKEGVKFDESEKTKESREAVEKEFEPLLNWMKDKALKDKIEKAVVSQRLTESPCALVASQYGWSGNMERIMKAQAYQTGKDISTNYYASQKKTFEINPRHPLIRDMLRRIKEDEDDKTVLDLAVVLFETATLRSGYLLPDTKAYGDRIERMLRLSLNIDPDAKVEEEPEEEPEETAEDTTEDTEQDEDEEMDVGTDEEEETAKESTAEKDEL", "assay": "In vitro binding of IPF with heat shock protein gp96", "excerpt": "FIG. 9 is a graph showing binding of an IPF with heat shock protein gp96 at dilutions of IPF 1/2500, IPF 1/500 and IPF 1/100, according to one embodiment of the present invention. A number of approaches may be used to detect complexing between IPF and gp96. By way of example, one such approach may be to obtain specific antibodies against IPF and gp96 and to build a sandwich immunoassay by suitable methods known in the art to detect the presence of these protein complexes. To detect binding of gp96 to IPF, the antigen may be coated on a plate to capture proteins from the sample and then report the binding with a specific detection antibody. The secondary (or detection) antibody may be directly labeled with MSD SULFO-TAG NHS ester or a SULFO-TAG-labeled anti-species, e.g., anti-mouse if the […] antibody is raised in mouse and the […] antibody is raised in a different species than the capture or primary antibody. Antibodies specific to IPF-gp96 complexes may also be used."}, "[1]": {"assay": "Biacore (SPR) binding of IPF to human serum", "settings": "in vitro", "description": "(§1) BIACORE assays were used for binding affinity. This technology measures mass concentration of biomolecules close to a surface. The surface is made specific by attaching one of the interacting partners. Sample containing the other partner(s) flows over the surface: when molecules from the sample bind to the interactant attached to the surface, the local concentration changes and an SPR (surface plasmon resonance) response is measured. The response is directly proportional to the mass of molecules that bind to the surface. The SPR response may be expressed by resonance units (RU). One RU represents change of 0.0001 in the angle of the intensity minimum which is equivalent to a change in concentration of […].\n(§2) The exact conversion factor between RU and surface concentration depends on properties of the sensor surface and the nature of the molecule responsible for the concentration change.\n(§3) The assays for these bindings were conducted by The Institute for Molecular Medicine using standard protocols."}, "human CD4": {"target": "human CD4 (Homo sapiens, UniProt P01730)", "assay": "Biacore (SPR) binding of IPF to human CD4", "settings": "in vitro", "description": "as §1, §2, §3\nThe BIACORE biosensor instrument for detecting compound ligand interaction. BIACORE may capture proteins including molecules from ctyosolic or tissue extracts on sensor surfaces and measure the binding kinetics. SPR is an optical technique that measures the refractive index change occurring at the sensor liquid-fluid interface layer. […]"}, "[2]": {"settings": "stated in contrast to IPF; cited from earlier work"}},
  "note": "“Also recorded” adds a separate entry of the source. Where no end group is shown, it is not given here.",
  "data": [
    {"substance": "IPF-5: peptide of SEQ ID NO 5, CCATSGPCGAVMILTPHLTA, from porcine pepsinogen (listed as Sus scrofa)", "values": [
      {"measurement": "in vitro binding affinity for gp96", "setting": "gp96", "value": "significant in vitro binding affinity"}
    ]},
    {"substance": "IPF-3: peptide of SEQ ID NO 3, NXVPVSVEGYXQITLDSITX, fragment of approximately 13.5 kDa from porcine pepsinogen (not fully specified; X: residue not identified in the source; listed as Sus scrofa)", "values": [
      {"measurement": "in vitro binding affinity for gp96", "setting": "gp96", "value": "significant in vitro binding affinity"}
    ]},
    {"substance": "IPF-2: peptide of SEQ ID NO 2, TLSTATGGAIPPVAAMPPGLVAPTHGPAIHP, from porcine pepsinogen (listed as Sus scrofa)", "values": [
      {"measurement": "in vitro binding affinity for gp96", "setting": "gp96", "value": "significant in vitro binding affinity"}
    ]},
    {"substance": "IPF-1: peptide of SEQ ID NO 1, TLTSGGGAIALPPSMAAPPLGPVAPLTGAIHAPTXG, fragment of approximately 45 kDa from porcine pepsinogen (not fully specified; X: residue not identified in the source; listed as Sus scrofa)", "values": [
      {"measurement": "in vitro binding affinity for gp96", "setting": "gp96", "value": "significant in vitro binding affinity"}
    ]},
    {"substance": "IPF-6: antiviral peptide characterized by SEQ ID NO 6, GDEPLENYLDTEYF, isolated from 45 kDa band of porcine pepsinogen preparation (listed as Sus scrofa)", "values": [
      {"measurement": "binding with human serum", "setting": "[1]", "value": "demonstrates binding in vitro"},
      {"measurement": "binding with human CD4+ cells", "setting": "human CD4", "value": "significant in vitro binding affinity; also recorded: demonstrates binding in vitro"}
    ]},
    {"substance": "IPF-4: peptide of SEQ ID NO 4, MTLTTGSGAIAPAMPPGLPPHTGAIHAPM, from porcine pepsinogen (listed as Sus scrofa)", "values": [
      {"measurement": "in vitro binding affinity for gp96", "setting": "gp96", "value": "significant in vitro binding affinity"}
    ]},
    {"substance": "Pepsin: porcine pepsin A, the starting material, compared for pI", "values": [
      {"measurement": "pI", "setting": "[2]", "value": "low"}
    ]}
  ]
}
